Data published in publication PMC10786891, “Massively parallel profiling of RNA-targeting CRISPR-Cas13d”.
Numbering of substitutions follows the chain as printed. Names and notes keep the numbering of the source.

T1: EsCas13d, nuclease-dead (Eubacterium siraeum, UniProt B0MS50, R295A;H300A;R849A;H854A)
T1 sequence: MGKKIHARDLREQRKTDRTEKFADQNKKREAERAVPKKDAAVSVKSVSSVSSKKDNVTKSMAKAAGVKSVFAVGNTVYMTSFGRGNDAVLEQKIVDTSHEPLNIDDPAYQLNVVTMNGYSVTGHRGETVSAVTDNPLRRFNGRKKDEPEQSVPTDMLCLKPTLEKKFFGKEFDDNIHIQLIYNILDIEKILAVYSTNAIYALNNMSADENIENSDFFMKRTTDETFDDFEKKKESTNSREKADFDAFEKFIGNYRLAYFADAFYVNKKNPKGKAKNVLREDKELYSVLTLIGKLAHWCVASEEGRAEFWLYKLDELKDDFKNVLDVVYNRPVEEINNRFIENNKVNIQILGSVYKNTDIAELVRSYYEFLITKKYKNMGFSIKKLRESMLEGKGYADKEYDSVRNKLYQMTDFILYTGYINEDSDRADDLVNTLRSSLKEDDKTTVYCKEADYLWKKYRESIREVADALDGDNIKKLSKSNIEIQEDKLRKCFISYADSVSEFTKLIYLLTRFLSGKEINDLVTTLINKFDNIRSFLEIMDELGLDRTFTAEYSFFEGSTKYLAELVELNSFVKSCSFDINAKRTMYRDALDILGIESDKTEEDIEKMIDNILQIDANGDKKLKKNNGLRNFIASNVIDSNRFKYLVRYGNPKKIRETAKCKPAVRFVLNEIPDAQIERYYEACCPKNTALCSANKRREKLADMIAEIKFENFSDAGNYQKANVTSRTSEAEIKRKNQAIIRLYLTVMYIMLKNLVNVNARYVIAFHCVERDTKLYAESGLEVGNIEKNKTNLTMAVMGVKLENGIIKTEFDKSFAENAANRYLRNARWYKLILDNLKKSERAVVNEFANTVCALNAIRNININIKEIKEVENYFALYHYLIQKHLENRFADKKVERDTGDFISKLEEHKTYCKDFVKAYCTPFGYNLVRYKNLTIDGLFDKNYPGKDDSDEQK

B1: target 1 MT 5'PFS GCU 3'PFS CCG (mixed)
RNA 1: CACCCGUGCAAAAAUGCAGGGGUCUAAAACUGAGCGGAUAACCUCUCUAUGG
RNA 2: GGGAAUGGAUCCACAUCUACGAAUUCGCUCCAUAGAGAGGUUAUCCGCUCACCGAGAUCGGAAGAGCACACGU
B2: target 1 MT 5'PFS UAG 3'PFS ACC (mixed)
RNA 1: B1 RNA 1
RNA 2: B1 RNA 2 with G27U, C28A, U29G, C52A, G54C
B3: target 1 MT 5'PFS AGA 3'PFS CGC (mixed)
RNA 1: B1 RNA 1
RNA 2: B1 RNA 2 with G27A, C28G, U29A, C53G, G54C
B4: target 1 MT 5'PFS GCU 3'PFS UCA (mixed)
RNA 1: B1 RNA 1
RNA 2: B1 RNA 2 with C52U, G54A
B5: target 1 MT 5'PFS GGG 3'PFS CGA (mixed)
RNA 1: B1 RNA 1
RNA 2: B1 RNA 2 with C28G, U29G, C53G, G54A
B6: target 1 insU 3' of 18,insG 3' of 16 (mixed)
RNA 1: B1 RNA 1
RNA 2: GGGAAUGGAUCCACAUCUACGAAUUCGUACCAUAUGAGGAGGUUAUCCGCUCACCGAGAUCGGAAGAGCACACGU
B7: target 1 MT 5'PFS AGG 3'PFS AUU (mixed)
RNA 1: B1 RNA 1
RNA 2: B1 RNA 2 with G27A, C28G, U29G, C52A, C53U, G54U
B8: target 1 insG 3' of 18,insC 3' of 11 (mixed)
RNA 1: B1 RNA 1
RNA 2: B6 RNA 2 with U35G, G39A, A40G, G42U, U43C
B9: target 1 MT 5'PFS GCA 3'PFS AUC (mixed)
RNA 1: B1 RNA 1
RNA 2: B1 RNA 2 with U29A, C52A, C53U, G54C
B10: target 1 MT 5'PFS GCC 3'PFS AGG (mixed)
RNA 1: B1 RNA 1
RNA 2: B1 RNA 2 with U29C, C52A, C53G
B11: target 1 MT 5'PFS AGG 3'PFS AUA (mixed)
RNA 1: B1 RNA 1
RNA 2: B1 RNA 2 with G27A, C28G, U29G, C52A, C53U, G54A
B12: target 1 C2A,U11C (mixed)
RNA 1: B1 RNA 1
RNA 2: B1 RNA 2 with C28U, U29A, U41C, C50A
B13: target 1 MT 5'PFS CUU 3'PFS UGC (mixed)
RNA 1: B1 RNA 1
RNA 2: B1 RNA 2 with G27C, C28U, C52U, C53G, G54C
B14: target 1 MT 5'PFS GCC 3'PFS AGC (mixed)
RNA 1: B1 RNA 1
RNA 2: B1 RNA 2 with U29C, C52A, C53G, G54C
B15: target 1 MT 5'PFS GCA 3'PFS AUU (mixed)
RNA 1: B1 RNA 1
RNA 2: B1 RNA 2 with U29A, C52A, C53U, G54U
B16: target 1 MT 5'PFS GCU 3'PFS UCC (mixed)
RNA 1: B1 RNA 1
RNA 2: B1 RNA 2 with C52U, G54C
B17: target 1 C4A,A14G (mixed)
RNA 1: B1 RNA 1
RNA 2: B1 RNA 2 with C28U, U29A, A38G, C48A
B18: target 1 MT 5'PFS UCC 3'PFS CGA (mixed)
RNA 1: B1 RNA 1
RNA 2: B1 RNA 2 with G27U, U29C, C53G, G54A
B19: target 1 MT 5'PFS CAC 3'PFS ACU (mixed)
RNA 1: B1 RNA 1
RNA 2: B1 RNA 2 with G27C, C28A, U29C, C52A, G54U
B20: target 1 MT 5'PFS CAC 3'PFS ACG (mixed)
RNA 1: B1 RNA 1
RNA 2: B1 RNA 2 with G27C, C28A, U29C, C52A
B21: target 1 MT 5'PFS AAA 3'PFS CUG (mixed)
RNA 1: B1 RNA 1
RNA 2: B1 RNA 2 with G27A, C28A, U29A, C53U
B22: target 1 MT 5'PFS UAG 3'PFS ACG (mixed)
RNA 1: B1 RNA 1
RNA 2: B1 RNA 2 with G27U, C28A, U29G, C52A
B23: target 1 MT 5'PFS GCU 3'PFS CCU (mixed)
RNA 1: B1 RNA 1
RNA 2: B1 RNA 2 with G54U
B24: target 1 MT 5'PFS GCU 3'PFS UCG (mixed)
RNA 1: B1 RNA 1
RNA 2: B1 RNA 2 with C52U
B25: target 1 MT 5'PFS CCA 3'PFS UUU (mixed)
RNA 1: B1 RNA 1
RNA 2: B1 RNA 2 with G27C, U29A, C52U, C53U, G54U
B26: target 1 MT 5'PFS CAC 3'PFS ACA (mixed)
RNA 1: B1 RNA 1
RNA 2: B1 RNA 2 with G27C, C28A, U29C, C52A, G54A
B27: target 1 MT 5'PFS GUC 3'PFS GCG (mixed)
RNA 1: B1 RNA 1
RNA 2: B1 RNA 2 with C28U, U29C, C52G
B28: target 1 MT 5'PFS GCU 3'PFS UCU (mixed)
RNA 1: B1 RNA 1
RNA 2: B1 RNA 2 with C52U, G54U
B29: target 1 MT 5'PFS GCA 3'PFS AUA (mixed)
RNA 1: B1 RNA 1
RNA 2: B1 RNA 2 with U29A, C52A, C53U, G54A
B30: target 1 MT 5'PFS GCC 3'PFS AGU (mixed)
RNA 1: B1 RNA 1
RNA 2: B1 RNA 2 with U29C, C52A, C53G, G54U
B31: target 1 MT 5'PFS GCC 3'PFS AGA (mixed)
RNA 1: B1 RNA 1
RNA 2: B1 RNA 2 with U29C, C52A, C53G, G54A
B32: target 1 MT 5'PFS UAG 3'PFS ACA (mixed)
RNA 1: B1 RNA 1
RNA 2: B1 RNA 2 with G27U, C28A, U29G, C52A, G54A
B33: target 1 MT 5'PFS UGC 3'PFS AGA (mixed)
RNA 1: B1 RNA 1
RNA 2: B1 RNA 2 with G27U, C28G, U29C, C52A, C53G, G54A
B34: target 1 MT 5'PFS AGA 3'PFS CGA (mixed)
RNA 1: B1 RNA 1
RNA 2: B1 RNA 2 with G27A, C28G, U29A, C53G, G54A
B35: target 1 MT 5'PFS UGU 3'PFS AAU (mixed)
RNA 1: B1 RNA 1
RNA 2: B1 RNA 2 with G27U, C28G, C52A, C53A, G54U
B36: target 1 MT 5'PFS CCU 3'PFS CUA (mixed)
RNA 1: B1 RNA 1
RNA 2: B1 RNA 2 with G27C, C53U, G54A
B37: target 1 MT 5'PFS GCA 3'PFS AUG (mixed)
RNA 1: B1 RNA 1
RNA 2: B1 RNA 2 with U29A, C52A, C53U
B38: target 1 MT 5'PFS GUU 3'PFS CAU (mixed)
RNA 1: B1 RNA 1
RNA 2: B1 RNA 2 with C28U, C53A, G54U
B39: target 1 MT 5'PFS AUA 3'PFS CCG (mixed)
RNA 1: B1 RNA 1
RNA 2: B1 RNA 2 with G27A, C28U, U29A
B40: target 1 MT 5'PFS AGA 3'PFS CGG (mixed)
RNA 1: B1 RNA 1
RNA 2: B1 RNA 2 with G27A, C28G, U29A, C53G

Target: T1, EsCas13d, nuclease-dead
Assay: crRNA (strand 1, pre-loaded); Mg2+; 40 mM Tris-HCl pH 7.5, 150 mM NaCl, 6 mM MgCl2, 1 mM DTT, 0.1% Tween-20, 0.2 mg/ml BSA; 25 C; 10 min per concentration, then washed
Conditions: tags: His6-TwinStrep-SUMO cleaved; N-terminal SNAP kept (SNAP-Surface 488); label: 3' end held by stalled T7 RNA polymerase

Binder | Kd [nM]
B1 | 40 ± 10.5
B2 | 28.5 ± 6.5
B3 | 37 ± 11
B4 | 27.5 ± 6.5
B5 | ~71
B6 | 73 ± 31
B7 | 26.5 ± 7
B8 | 99 ± 19
B9 | ~28
B10 | 37 ± 9.5
B11 | 26.5 ± 8.5
B12 | 9.5 ± 0.7
B13 | 22 ± 7
B14 | 13.1 ± 3.8
B15 | 15.5 ± 2.95
B16 | 37.5 ± 13
B17 | 14.8 ± 1.5
B18 | ~48.5
B19 | 21 ± 7.5
B20 | ~22

Binder | Kd [nM]
B21 | 22.5 ± 5
B22 | 19.1 ± 2.85
B23 | ~24.5
B24 | 39 ± 8
B25 | 2.4 ± 0.9
B26 | ~45.5
B27 | 15.5 ± 7.5
B28 | 30 ± 7
B29 | 25.5 ± 8.5
B30 | 27 ± 7
B31 | 24.5 ± 8
B32 | 31.5 ± 9.5
B33 | ~23
B34 | ~90
B35 | ~100
B36 | 12.5 ± 6
B37 | 24.5 ± 6
B38 | 22.5 ± 7
B39 | 62 ± 26.5
B40 | 41.5 ± 12.5
